# In patent US20040006018A1:
# Target: Mouse CT-1 fusion protein (mouse cardiotrophin-1 with a 34 amino acid N-terminal extension that encodes a portion of the herpes simplex virus glycoprotein D and a factor Xa cleavage site) (mouse) (UniProt Q60753)
# Test: 125I-mouse CT-1 binding to soluble LIF receptor with added soluble gp130, Ni-NTA agarose
# Mouse CT-1 fusion protein (mouse cardiotrophin-1 with a 34 amino acid N-terminal extension that encodes a portion of the herpes simplex virus glycoprotein D and a factor Xa cleavage site) (mouse), sequence (Q60753 whole entry, the tested form may be a part): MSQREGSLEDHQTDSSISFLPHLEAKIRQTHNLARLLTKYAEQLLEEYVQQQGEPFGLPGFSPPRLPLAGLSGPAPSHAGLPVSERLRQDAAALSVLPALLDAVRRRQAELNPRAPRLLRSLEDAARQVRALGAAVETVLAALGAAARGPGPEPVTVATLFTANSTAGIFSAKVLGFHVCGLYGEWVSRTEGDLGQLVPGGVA
substance,measurement,value
"Soluble mouse gp130 (extracellular domain, amino acids 1-617, with a C-terminal tag of 6 histidine residues) (from UniProt Q00560 23-617) (receptor)",concentration of soluble gp130 required to increase the binding of CT-1 to the soluble LIF receptor,100 nM
